Values of other authors in patent US20220223299A1, “METHODS AND APPARATUSES FOR MODELING, SIMULATING, AND TREATING HEREDITARY ANGIOEDEMA” (Takeda Pharmaceutical Company Limited, priority 2019, published 2022).

T1: FXIIa (Homo sapiens, UniProt P00748)
T1 sequence (P00748 20-372 partner limits assumed): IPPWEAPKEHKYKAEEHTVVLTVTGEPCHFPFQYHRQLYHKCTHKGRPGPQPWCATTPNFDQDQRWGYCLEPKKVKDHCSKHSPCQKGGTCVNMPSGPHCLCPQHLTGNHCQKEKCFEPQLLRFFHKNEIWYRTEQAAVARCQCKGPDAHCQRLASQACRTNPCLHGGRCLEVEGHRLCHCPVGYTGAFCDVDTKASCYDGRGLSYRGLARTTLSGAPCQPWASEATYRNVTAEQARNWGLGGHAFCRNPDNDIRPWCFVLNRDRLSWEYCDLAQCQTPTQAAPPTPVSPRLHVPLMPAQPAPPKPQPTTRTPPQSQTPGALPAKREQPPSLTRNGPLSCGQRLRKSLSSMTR
T1 sequence (P00748 373-615 limits assumed): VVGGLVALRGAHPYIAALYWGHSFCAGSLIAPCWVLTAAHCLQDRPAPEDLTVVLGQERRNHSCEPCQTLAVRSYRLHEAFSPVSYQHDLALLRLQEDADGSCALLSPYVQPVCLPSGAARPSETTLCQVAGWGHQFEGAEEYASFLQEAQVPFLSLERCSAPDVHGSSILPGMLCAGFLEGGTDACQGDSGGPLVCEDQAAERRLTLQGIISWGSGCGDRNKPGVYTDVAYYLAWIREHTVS

B1: Lanadelumab: fully human IgG1 recombinant monoclonal antibody inhibitor of activated plasma kallikrein (antibody, chains of the INN, looked up, V domains shown)
VH: EVQLLESGGGLVQPGGSLRLSCAASGFTFSHYIMMWVRQAPGKGLEWVSGIYSSGGITVYADSVKGRFTISRDNSKNTLYLQMNSLRAEDTAVYYCAYRRIGVPRRDEFDIWGQGTMVTVSS
VL: DIQMTQSPSTLSASVGDRVTITCRASQSISSWLAWYQQKPGKAPKLLIYKASTLESGVPSRFSGSGSGTEFTLTISSLQPDDFATYYCQQYNTYWTFGQGTKVEIK

Columns and labels:
FXIIa = molecular target: T1, FXIIa; conditions: FXIIa in plasma and FXIIa_gC1qR
KAL (kallikrein) = molecular target: T2, KAL (kallikrein) (Homo sapiens, UniProt P03952); conditions: KAL in plasma, KAL_HMWK in plasma and KAL_HMWK_gC1qR
T2 construct: The preKAL is cleaved by FXIIa resulting in KAL, the two-chain enzyme kallikrein
T2 sequence (P03952 20-390 partner limits assumed): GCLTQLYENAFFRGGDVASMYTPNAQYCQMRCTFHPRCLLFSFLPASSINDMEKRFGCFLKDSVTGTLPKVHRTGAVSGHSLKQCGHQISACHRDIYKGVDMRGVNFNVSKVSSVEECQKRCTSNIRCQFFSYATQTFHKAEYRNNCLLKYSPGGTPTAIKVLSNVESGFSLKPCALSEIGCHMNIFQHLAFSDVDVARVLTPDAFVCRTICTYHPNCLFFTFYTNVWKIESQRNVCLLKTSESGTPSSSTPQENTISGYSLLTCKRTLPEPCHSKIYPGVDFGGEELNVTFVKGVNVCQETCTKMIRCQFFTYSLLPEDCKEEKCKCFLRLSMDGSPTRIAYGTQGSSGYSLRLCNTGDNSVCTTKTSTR
T2 sequence (P03952 391-638 limits assumed): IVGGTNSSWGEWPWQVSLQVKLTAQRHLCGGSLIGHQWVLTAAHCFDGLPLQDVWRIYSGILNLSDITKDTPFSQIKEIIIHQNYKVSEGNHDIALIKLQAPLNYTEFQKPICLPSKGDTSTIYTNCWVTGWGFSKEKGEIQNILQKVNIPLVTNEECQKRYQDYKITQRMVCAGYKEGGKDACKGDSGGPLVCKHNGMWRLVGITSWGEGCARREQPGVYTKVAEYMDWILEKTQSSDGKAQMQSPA

[1] = in vivo
KAL (plasma kallikrein) = molecular target: T3, KAL (plasma kallikrein) (Homo sapiens, UniProt P03952); conditions: KAL in plasma, KAL_HMWK in plasma and KAL_HMWK_gC1qR
T3 construct: The preKAL is cleaved by FXIIa resulting in KAL, the two-chain enzyme kallikrein
T3 sequence (P03952 20-390 partner limits assumed): as the sequence (P03952 20-390 partner limits assumed) above
T3 sequence (P03952 391-638 limits assumed): as the sequence (P03952 391-638 limits assumed) above

Molecule	koff_C1Inh_FXIIa (FXIIa)	kon_C1Inh_FXIIa (FXIIa)	Kd (FXIIa; read-out: Kd_C1Inh_FXIIa)	koff_C1Inh_KAL (KAL (kallikrein))	kon_C1Inh_KAL (KAL (kallikrein))	Kd (KAL (kallikrein); read-out: Kd_C1Inh_KAL)	kdeg_C1Inh, degradation rate for C1Inh (vascular space)	kdeg_Bound_C1Inh, degradation rate for bound C1Inh (vascular space, bound C1Inh)	half-life [1]	kdeg Lanadelumab KAL HMWK gC1qR, degradation rate for Lanadelumab bound with KAL HMWK gC1qR receptor complex (proximal space)	koff_KAL_Lanadelumab (KAL (plasma kallikrein))	kon_KAL_Lanadelumab (KAL (plasma kallikrein))	Kd (KAL (plasma kallikrein); read-out: Kd_KAL_Lanadelumab)
C1Inh: C1 inhibitor protein; binds to and inhibits both Factor XIIa and kallikrein	0.06364 s⁻¹	37000 M⁻¹ s⁻¹	1720 nM	0.00255 s⁻¹	17000 M⁻¹ s⁻¹	150 nM	4.58e-06 s⁻¹	0.0038508 s⁻¹					
B1									14 days	9.63e-05 s⁻¹	0.0004033 s⁻¹	3.36e+06 M⁻¹ s⁻¹	0.12 nM
